Results from patent publication US10357572B2, “Prodrugs activated by caspase” (priority 2014, dated 2019).
Starred links: 1 amine or outer side, 2 acyl side, 3 side chain; linkers in the order of their positions; H or OH if unused. Non-standard residues stand in square brackets, D forms with d. Residues, ends and D or L forms follow the SMILES beside them. *: point of attachment. Doxorubicin(3'-N) = COc1cccc2c1C(=O)c1c(O)c3c(c(O)c1C2=O)C[C@@](O)(C(=O)CO)C[C@@H]3O[C@H]1C[C@H](N*)[C@H](O)[C@H](C)O1; Hexanoyl(6-maleimido) = O=C1C=CC(=O)N1CCCCCC(=O)*; PABC = O=C(OCc1ccc(N[*:1])cc1)[*:2]

Columns and labels:
[1] = Plasma concentration-time curve of doxorubicin content after intravenous administration to rats; type: in vivo; conditions: Sprague-Dawley rats, molar equivalent to 1 mg/kg of doxorubicin
Experimental: The pharmacokinetic profile of the maleimide-KGDEVD-PABC-doxorubicin (SEQ ID NO: 10) and AcKGDEVD-PABC-doxorubicin (SEQ ID NO: 32) conjugates was determined after intravenous administration to Sprague-Dawley rats at a dose of molar equivalent to 1 mg/kg of doxorubicin (FIG. 25). Blood samples were collected at 5, 15, 30, 60, 90 minutes and then 2, 4, 8, 12, 24, 48, 72, 96, 144 hours post-injection (500 μl each). The collected blood samples were stabilized immediately with sodium citrate and centrifuged for 15 min at 2000×g in a refrigerated centrifuge to separated plasma. The plasma samples (200 μl) were transferred to a 96-well black microplate and the intrinsic fluorescence of doxorubicin was read at Ex 485 nm/Em 590 nm. A standard was prepared in fresh plasma and fluorescence was read as described above.

[2] = Plasma concentration-time curves of doxorubicin content after intravenous administration to monkeys; type: in vivo; conditions: Cynomolgus monkeys, molar equivalent to 1 mg/kg of doxorubicin
Experimental: The pharmacokinetic profiles of the maleimide-KGDEVD-PABC-doxorubicin (SEQ ID NO: 10) and AcKGDEVD-PABC-doxorubicin (SEQ ID NO: 32) conjugates were determined after intravenous administration to Cynomolgus monkeys at a dose of molar equivalent to 1 mg/kg of doxorubicin (FIG. 28). Blood samples were collected at 15, 30, 45, 60, 90 minutes and then 2, 3, 4, 6, 8, 12, 24, 48, 72, 96, 120, 144, 168 hours post-injection (500 μl each). The collected blood samples were stabilized immediately with sodium citrate and centrifuged for 15 min at 2000×g in a refrigerated centrifuge to separate the plasma. The plasma samples (200 al) were transferred to a 96-well black microplate and the intrinsic fluorescence of doxorubicin was read at Ex 485 nm/Em 590 nm. A standard was prepared in fresh plasma and the fluorescence was read as described above.

[3] = target: T1, recombinant human caspase-3 (Homo sapiens, UniProt P42574); test: HPLC monitored cleavage study by recombinant human caspase-3; type: biochemical; conditions: incubated with purified caspase-3, HPLC
T1 sequence (P42574 29-175 limits assumed): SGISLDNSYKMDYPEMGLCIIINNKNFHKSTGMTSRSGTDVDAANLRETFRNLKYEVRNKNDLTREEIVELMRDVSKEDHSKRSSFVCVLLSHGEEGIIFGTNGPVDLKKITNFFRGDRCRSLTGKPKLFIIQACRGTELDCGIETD
T1 sequence (P42574 176-277 limits assumed): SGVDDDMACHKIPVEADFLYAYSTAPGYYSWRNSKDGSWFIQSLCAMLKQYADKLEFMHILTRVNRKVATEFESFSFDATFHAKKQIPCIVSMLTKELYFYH
Description: Example 21—HPLC Monitored Cleavage Studies of Human Serum Albumin-Bound Maleimide-KGDEVD-PABC-Doxorubicin (SEQ ID NO: 10) (HSA-KGDEVD-PABC-Doxorubicin (SEQ ID NO: 31)) by Recombinant Human Caspase-3

With COc1cccc2c1C(=O)c1c(O)c3c(c(O)c1C2=O)C[C@@](O)(C(=O)CO)C[C@@H]3O[C@H]1C[C@H](NC(=O)OCc2ccc(NC(=O)[C@H](CC(=O)O)NC(=O)[C@@H](NC(=O)[C@H](CCC(=O)O)NC(=O)[C@H](CC(=O)O)NC(=O)CNC(=O)[C@H](CCCCN)NC(C)=O)C(C)C)cc2)[C@H](O)[C@H](C)O1 [AcKGDEVD-PABC-doxorubicin, Ac-Lys-Gly-Asp-Glu-Val-Asp-PABC-doxorubicin] (Ac-KGDEVD[PABC]-{Doxorubicin(3'-N)}) the “time until plasma concentration decreased below the detection limit (5 ng/ml)” value [1] was no more than 4 h, the half-life ([1]; rat, in vivo, plasma fluorescence, read-out: terminal half-life) was 30 min and the “time until plasma concentration decreased below the detection limit (5 ng/ml)” value [2] was no more than 6 h. It also gave a terminal half-life ([2]; plasma fluorescence) of 60 min.
In the case of COc1cccc2c1C(=O)c1c(O)c3c(c(O)c1C2=O)C[C@@](O)(C(=O)CO)C[C@@H]3O[C@H]1C[C@H](NC(=O)OCc2ccc(NC(=O)[C@H](CC(=O)O)NC(=O)[C@@H](NC(=O)[C@H](CCC(=O)O)NC(=O)[C@H](CC(=O)O)NC(=O)CNC(=O)[C@H](CCCCNC(=O)CCCCCN3C(=O)C=CC3=O)NC(C)=O)C(C)C)cc2)[C@H](O)[C@H](C)O1 [maleimide-KGDEVD-PABC-doxorubicin, Ac-Lys(EMC)-Gly-Asp-Glu-Val-Asp-PABC-doxorubicin] (Ac-K(Hexanoyl(6-maleimido))GDEVD[PABC]-{Doxorubicin(3'-N)}), the “time the conjugate lasted in plasma after administration” value [1] is reported as “more than 6 days” and the “time the plasma concentration was detectable after administration” value [2] is reported as “more than 7 days”.
In the case of HSA-maleimide-KGDEVD-PABC-doxorubicin, the “time until free doxorubicin was completely liberated from the conjugate” value [3] is reported as no more than 1 h.
